Test results from patent publication US8497072 (AbbVie / Abbott, dated 2013).

What was measured:
Aβ(1-42) globulomer [1] = biological target: T1, Aβ(1-42) globulomer (human, UniProt P05067 672-713); assay: sandwich ELISA, reference Aβ(1-42) monomer
T1 construct: The definitions give n=12-14 subunits for late assembly forms; no subunit number is stated for the preparation used; also called A-beta (1-42) globulomer; Aβ(1-42) globular oligomer

Aβ(1-40) monomer [2] = biological target: T2, Aβ(1-40) monomer (human); assay: dot blot, 10 pmol antigen on nitrocellulose, 0.2 µg/ml antibody, densitometry
T2 construct: also called Aβ40; Aβ(1-40) monomer HFIP pretreated
Description: (§1) In a second example, described in Example 2.2 below, the oligomer selectivity versus Aβ(1-42) monomer and Aβ(1-40) monomer was examined by dot blot immunoassay.
(§2) Serial dilutions of Aβ(1-42) globulomer, Aβ1-42 monomer and Aβ1-40 monomer were made in the range from 100 pmol/μl-0.01 pmol/μl in PBS. Of each sample, 1 μl was dotted onto a nitrocellulose membrane. […] The detection signal was analyzed in its intensity (reflective density=RD) via a densitometer (GS 800, Biorad, Hercules, Calif., USA) at an antigen concentration of 10 pmol.

[3] = biological target: T3, Aβ1-42 monomer (dot blot) (human); assay: as above
T3 construct: also called Aβ42 monomer
Description: as §1, §2

Aβ(1-42) globulomer [4] = biological target: T1, Aβ(1-42) globulomer; assay: as above
Description: as §1, §2

Aβ(1-40) monomer [5] = biological target: T2, Aβ(1-40) monomer; assay: sandwich ELISA, EC50 of this antigen divided by EC50 of Aβ(1-42) globulomer
[6] = biological target: Aβ(1-42) monomer in NH4OH (human); assay: as above
[7] = biological target: T4, Aβ(1-42) monomer, HFIP pretreated (human); assay: as above
T4 construct: also called Aβ(1-42) monomer in HFIP; Aβ(1-42) monomer HFIP treated

Aβ(1-40) monomer [8] = biological target: T2, Aβ(1-40) monomer; assay: sandwich ELISA, 6G1 capture, antigen titrated, biotinylated 8F5 detection
Description: (§3) Two types of experiments were performed. […] This experiment is described in Example 2.1 below.
(§4) Add 10 μl Aβ(1-42) monomer HFIP-pretreated standard stock solution to 44041 PBST+0.5% BSA 10 μg/ml Add 50 μl 10 μg/ml Aβ(1-42) monomer HFIP pretreated standard solution to 495041 PBST+0.5% BSA=100 ng/ml c) Aβ(1-42) monomer in NH4OH Add 5 μl Aβ(1-42) monomer in NH4OH standard stock solution to 995 μl PBST+0.5% BSA=[…] Add 50 μl 10 μg/ml Aβ(1-42) monomer in NH4OH standard solution to 495041 PEST+[…]=100 ng/ml d) Aβ(1-40) monomer HFIP-pretreated Add 1 μl Aβ(1-40) monomer HFIP pretreated standard stock solution to 49 μl PBST+0.5% BSA=430 μg/ml Add 10 μl 430 μg/ml Aβ(1-40) monomer HFIP pretreated standard solution to […] PEST+0.5% BSA=10 μg/ml Add 50 μl 10 μg/ml Aβ(1-40) monomer HFIP pretreated standard solution to 4950 μl PBST+0.5% BSA 100 ng/ml Standard Curves:
(§5) 1. Apply 100 μl anti-Aβ mMAb 6G1 solution per well and incubate overnight at 4° C. 2. Discard the antibody solution and wash the wells with 250 μl PBST-Buffer three times. 3. Add 260 μl block solution per well and incubate 2 h at room temperature. 4. Discard the block solution and wash the wells with 250 μl PBST-Buffer three times. 5. After preparation of standards, apply 100 μl per well of standards to the plate. Incubate 2 h at room temperature and overnight at 4° C. 6. Discard the standard solution and wash the wells with 250 μl PBST-Buffer three times. 7. […] 8. Discard the antibody solution and wash the wells with 250 μl PBST-Buffer three times. 9. Add 200 μl label solution per well and incubate 1 h at room temperature. 10. Discard the label solution and wash the wells with 250 μl PBST-Buffer three times. 11. Add 100 μl of TMB solution to each well and incubate at room temperature (5-15 min). 12.

[9] = biological target: Aβ(1-42) monomer in NH4OH (human); assay: as above
Description: as §3, §4, §5

[10] = biological target: T4, Aβ(1-42) monomer, HFIP pretreated; assay: as above
Description: as §3, §4, §5

Aβ(1-42) globulomer [11] = biological target: T1, Aβ(1-42) globulomer; assay: as above
Description: as §3, §4, §5

[12] = biological target: T5, endogenous Aβ(1-42) in human CSF (human); assay: IP from AD patient CSF, urea-PAGE Western blot, share of Aβ42 in recovered Aβ40+42
T5 construct: Endogenous peptide in cerebrospinal fluid of MCI and AD patients; it was quantified after elution by ELISA or urea-PAGE Western blot; also called Aβ42; Amyloid β(1-42)
Description: Immunoprecipitation of Abeta Species from Human AD-CSF: 250 μL aliquot of the prepared CSF sample were added to 25 μL anti-Aβ-Dynabeads suspension. Immunoprecipitation occurred under stirring at 6° C. for 16 hours. Subsequent washing of the beads was performed 3 times 5 min. with 1 mL PBS/0.1% (w/v) BSA and finally once 3 min. with 1 mL 10 mM Tris/HCL pH 7.5 buffer. During the washing procedure, the supernatant was carefully removed while the dynabeads were immobilized at the side of the reaction vial with a magnetic separator stand (MSS). The residual supernatant was thoroughly removed after the final washing step. […] After cooling to room temperature, the dynabeads were immobilized at the side of the reaction vial with a magnetic separator stand (MSS), and the supernatant was transferred to another Eppendorff tube (IP eluate).
15 μL IP eluate aliquots of the immunoprecipitated samples were loaded onto the 8 M Urea PAGE. Electrophoresis was performed at 100 V (15 min) and continued at 60 V. The electrophoresis was stopped when the running front of the blue sample loading dye was still 0.5 cm away from the end of the gel.

Aβ(1-42) globulomer [13] = biological target: T1, Aβ(1-42) globulomer; assay: dot blot, reference Aβ(1-42) monomer
Description: as §1, §2

Aβ(1-42) globulomer [14] = biological target: T1, Aβ(1-42) globulomer; assay: dot blot, reference Aβ(1-40) monomer
Description: as §1, §2

Aβ(1-40) monomer [15] = biological target: T2, Aβ(1-40) monomer; assay: dot blot, 10 pmol antigen on nitrocellulose, densitometry
Description: as §1, §2

[16] = biological target: T3, Aβ1-42 monomer (dot blot); assay: as above
Description: as §1, §2

Aβ(1-42) globulomer [17] = biological target: T1, Aβ(1-42) globulomer; assay: as above
Description: as §1, §2

T4 sequence (peptide, as listed by the source): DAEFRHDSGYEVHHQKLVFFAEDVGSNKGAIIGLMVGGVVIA
T2 sequence (peptide, as listed by the source): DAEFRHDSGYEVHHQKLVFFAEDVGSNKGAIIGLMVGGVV

selectivity for Aβ(1-42) globulomer versus Aβ(1-42) monomer (Aβ(1-42) globulomer [1]) [fold] | Reflective Density (RD) [10 pmol] (Aβ(1-40) monomer [2]) [RD] | Reflective Density (RD) [10 pmol] [3] [RD] | Reflective Density (RD) [10 pmol] (Aβ(1-42) globulomer [4]) [RD] | selectivity factor (EC50 ratio against Aβ(1-42) globulomer) (Aβ(1-40) monomer [5]) [fold] | selectivity factor (EC50 ratio against Aβ(1-42) globulomer) [6] [fold] | selectivity factor (EC50 ratio against Aβ(1-42) globulomer) [7] [fold] | Log EC50 (Aβ(1-40) monomer [8]) | Log EC50 [9] | Log EC50 [10] | Log EC50 (Aβ(1-42) globulomer [11]) | Ratio Aβ42/Aβ40+42 × 100% [12] [%] | Ratio RD Aβ(1-42) globulomer/RD Aβ(1-42) monomer (Aβ(1-42) globulomer [13]) | Ratio RD Aβ(1-42) globulomer/RD Aβ(1-40) monomer (Aβ(1-42) globulomer [14]) | Reflective Density (RD) [10 pmol] (Aβ(1-40) monomer [15]) [RD] | Reflective Density (RD) [10 pmol] [16] [RD] | Reflective Density (RD) [10 pmol] (Aβ(1-42) globulomer [17]) [RD] | Binder
~10 | 0.1 | 1.1 | 1.6 | 7.4 | 11.1 | 6.1 | 2.83 | 3 | 2.75 | 1.96 | 8.1 | 1.4 | 16.9 |  |  |  | monoclonal antibody 8F5 (antibody, V domains shown, Murine monoclonal antibody from a hybridoma (Balb/c mice immunized with Aβ(1-42) globulomer); Biotinylated with Sulfo-NHS-Biotin for the sandwich ELISA; coupled to Sepharose or Dynabeads for the immunoprecipitations; also called mMAb 8F5; anti-Aβ mouse Mab 8F5) VH: EVQLVESGGGLVQPGGSLKLSCAASGFTFSSYGMSWVRQTPDKRLELVASINSNGGSTYYPDSVKGRFTISRDNAKNTLYLQMSSLKSEDTAMYYCASGDYWGQGSTLTVSS VL: DVVMTQTPLSLPVSLGDQASISCRSSQSLVYSNGDTYLHWYLQKPGQSPKLLIYKVSNRFSGVPDRFSGSGSGTDFTLKISRVEAEDLGVYFCSQSTHVPWTFGGGTKLEIKR
 |  |  |  | > 100 | > 100 | 4.1 |  |  |  |  | 14.9 | 5.1 | 4.1 | 0.3 | 0.2 | 1.3 | monoclonal antibody 8C5 (antibody, V domains shown, Murine monoclonal antibody from a hybridoma; Biotinylated for the sandwich ELISA; also called mMab 8C5; 5C5) VH: EVQLVESGGGLVQPGGSLKLSCTASGFTFSSYGMSWVRQTPDKRLELVASIKNNGGSTYYPDSLKGRFTISRDNAKNTLYLQMSSLKSEDTAMYYCASGDYWGQGTTLTVSS VL: DVVMTQTPLSLPVSLGDQASISCRSSQSLVHSNGDTFLHWYLQKPGQSPKLLIYKVSNRFSGVPDRFSGSGSGTDFTLKISRVEAEDLGIYFCSQSIHVPWTFGGGTKLEIKR
